Assay results reported in article doi:10.1101/2022.03.18.484894, “Molecular determinants of the Bacillus subtilis chromosome origin basal unwinding system”.

B1: B. subtilis WT BUS scaffold (EMSA substrate) (dsDNA)
DNA 1: ACTTATCCACAAATCCACAGGCCC
DNA 2: TACTATTACTTCTACTA
DNA 3: TAGTAGAAGTAATAGTAGGGCCTGTGGATTTGTGGATAAGT
B2: BUS scaffold with phosphorothioate backbone (EMSA) (XNA)
DNA 1: ACTTATCCACAAATCCACAGGCC
DNA 2: CTACTATTACTTCTACTA
DNA 3: B1 DNA 3
modifications: phosphorothioate linkages in the DnaA-trio region; exact positions of the EMSA version not stated

Key:
DnaA R264A = DnaA R264A (Bacillus subtilis, UniProt P05648 1-446, R264A); assay: EMSA; smaller complex that enters the gel; EMSA: 13 nM scaffold, 250-1000 nM DnaA, 10 mM HEPES-KOH pH 8, 100 mM K-glutamate, 1 mM Mg acetate, 30% glycerol, 10% DMSO, 1 mM ADP or ATP, 20 C, 3 h; 6% PAGE with 5 mM MgCl2; conditions: protein: recombinant; tags: none after cleavage of His14-SUMO; label: 5'-Cy3 on strand 1 (oHM752); 5'-Cy5 on strand 2 (oHM590); three-strand duplex: strands 1 and 2 adjacent (nick) on 41-nt strand 3, blunt
DnaA [1] = molecular target: T1, DnaA (Bacillus subtilis, UniProt P05648 1-446); assay: EMSA; ATP; large complex near the well plus strand separation; EMSA: 13 nM scaffold, 250-1000 nM DnaA, 10 mM HEPES-KOH pH 8, 100 mM K-glutamate, 1 mM Mg acetate, 30% glycerol, 10% DMSO, 1 mM ADP or ATP, 20 C, 3 h; 6% PAGE with 5 mM MgCl2; conditions: protein: recombinant; tags: none after cleavage of His14-SUMO; label: 5'-Cy3 on strand 1 (oHM752); 5'-Cy5 on strand 2 (oHM590); three-strand duplex: strands 1 and 2 adjacent (nick) on 41-nt strand 3, blunt
DnaA [2] = molecular target: T1, DnaA; assay: EMSA; ATP; large complexes enter the gel poorly; EMSA: 13 nM scaffold, 250-1000 nM DnaA, 10 mM HEPES-KOH pH 8, 100 mM K-glutamate, 1 mM Mg acetate, 30% glycerol, 10% DMSO, 1 mM ADP or ATP, 20 C, 3 h; 6% PAGE with 5 mM MgCl2; conditions: protein: recombinant; tags: none after cleavage of His14-SUMO; label: Cy3 on annealed strand; Cy5 on separated strand; three-strand scaffold

Binder	binding result (DnaA R264A)	binding result (DnaA [1])	binding result (DnaA [2])
B1	binds	binds	–
B2	–	–	binds
